Source: patent publication US20080268507

How the values were obtained:
Experiment in all cases: cleavage_in_vitro
[1] = test system: NPN329 (Nt.CviPII C-terminal truncation) (Chlorella virus NYs-1); settings: 37 C 1 h; same specificity as wild type
[2] = test system: NPN297 (Nt.CviPII C-terminal truncation) (Chlorella virus NYs-1); settings: 37 C 1 h; same specificity as wild type
[3] = test system: T1, Nt.CviPII (His+) (Chlorella virus NYs-1); settings: NEBuffer 4 (10 mM Mg acetate), 37 C 1 h
T1 sequence: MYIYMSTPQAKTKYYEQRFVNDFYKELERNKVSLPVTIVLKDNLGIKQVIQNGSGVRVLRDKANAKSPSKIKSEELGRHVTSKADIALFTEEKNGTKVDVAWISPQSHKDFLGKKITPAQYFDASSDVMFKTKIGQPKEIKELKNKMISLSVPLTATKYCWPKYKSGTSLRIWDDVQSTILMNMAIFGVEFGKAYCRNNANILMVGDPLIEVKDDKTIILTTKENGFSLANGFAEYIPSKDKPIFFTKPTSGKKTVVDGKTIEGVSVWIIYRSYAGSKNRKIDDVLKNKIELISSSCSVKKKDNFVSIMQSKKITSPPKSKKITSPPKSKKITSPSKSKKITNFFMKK

## pUC19 plasmid
[1]
  activity: 1400 units/mg
[2]
  activity: 2600 units/mg
[3]
  activity: 9410 units/mg
